# B1: MBP-KRAB (ZNF93 KRAB, wild type) (domain or fragment)
# chain: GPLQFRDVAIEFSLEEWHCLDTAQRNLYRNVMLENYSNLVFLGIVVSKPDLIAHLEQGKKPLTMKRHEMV
# B2: MBP-KRAB (ZNF93 KRAB E35R) (domain or fragment)
# chain: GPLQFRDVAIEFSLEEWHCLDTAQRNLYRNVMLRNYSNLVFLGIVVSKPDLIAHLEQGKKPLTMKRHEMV
# Tests used:
# [1] = target: T1, KAP1 RBCC R311E, SPR analyte (human (by the printed UniProt entry), UniProt Q13263 1-835, R311E); experiment: SPR
# [2] = target: T1, KAP1 RBCC R311E, SPR analyte; experiment: SPR; major phase
# [3] = target: T1, KAP1 RBCC R311E, SPR analyte; experiment: SPR; major phase; remark: listed apart in the source
# [4] = target: T1, KAP1 RBCC R311E, SPR analyte; experiment: SPR; minor phase
# [5] = target: B1; experiment: SPR; major phase
# [6] = target: B2; experiment: SPR; major phase
# [7] = target: B1; experiment: SPR; minor phase
# [8] = target: B1; experiment: SPR; minor phase; remark: listed apart in the source
# [9] = target: B2; experiment: SPR; minor phase
Kd [1] [µM],koff [2] [s⁻¹],Kd [3] [µM],Kd [4] [µM],koff [5] [s⁻¹],koff [6] [s⁻¹],koff [7] [s⁻¹],Kd [8] [µM],Kd [9] [µM],Binder
0.029,0.00083,0.029,2,–,–,–,–,–,B1
–,–,–,–,0.000232,0.008,0.0061,19,47,"KAP1 RBCC (wild type), SPR analyte (domain or fragment) SPAGGGAEALELLEHCGVCRERLRPEREPRLLPCLHSACSACLGPAAPAAANSSGDGGAAGDGTVVDCPVCKQQCFSKDIVENYFMRDSGSKAATDAQDANQCCTSCEDNAPATSYCVECSEPLCETCVEAHQRVKYTKDHTVRSTGPAKSRDGERTVYCNVHKHEPLVLFCESCDTLTCRDCQLNAHKDHQYQFLEDAVRNQRKLLASLVKRLGDKHATLQKSTKEVRSSIRQVSDVQKRVQVDVKMAILQIMKELNKRGRVLVNDAQKVTEGQQERLERQHWTMTKIQKHQEHILRFASWALESDNNTALLLSKKLIYFQLHRALKMIVDPVEPHGEMKFQWDLNAWTKSAEAFGKIVAERP"
–,0.0037,–,35.6,–,–,–,–,–,B2

# From PMC9753469 (2022)
